Literature values in publication PMC2912364.

Target: IL-15Rα (UniProt Q13261)
Sequence of UniProt Q13261 (Q13261 31-205): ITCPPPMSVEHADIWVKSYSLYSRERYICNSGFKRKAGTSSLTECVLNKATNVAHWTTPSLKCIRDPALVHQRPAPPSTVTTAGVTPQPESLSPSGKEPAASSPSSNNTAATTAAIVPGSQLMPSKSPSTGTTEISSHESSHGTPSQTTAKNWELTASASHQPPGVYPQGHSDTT

Kd: 0.038 nM
Substance: IL-15 (from UniProt P40933)
